Test results taken from patent US20260258115A1.

Legend:
[1] = biological target: Respiratory Syncytial Virus fusion glycoprotein (RSV F) on RSV-A2 virus (Respiratory Syncytial Virus subtype A (RSV-A2)); assay: cell-based or functional assay
[2] = biological target: RSV prefusion F (preF), DS-Cav1 (Respiratory Syncytial Virus); assay: BLI, IgG on anti-human IgG sensor, 100 nM antigen
[3] = biological target: RSV postfusion F (postF, F deltaFP) (Respiratory syncytial virus); assay: BLI, IgG on sensor, 100 nM antigen
[4] = biological target: RSV prefusion F (preF, DS-Cav1) (Respiratory syncytial virus); assay: BLI, IgG on sensor, 100 nM antigen

| Binder | Neutralization IC50 (RSV subtype A) [1] | Kd [2] | Kd [3] | Kd [4] |
| --- | --- | --- | --- | --- |
| ADI-41227 (antibody, V domains shown) VH: RSSWCSVGAEVKKRGSSVKVSCKASGGTFGGYAVSWVRQAPGQGLEWMGGIIPMFYTTKYAQKLQGRVTITADESTNTAYMDLSSLTSDDTAIYFCAREWHLGRTAVTGTGAFLDAFDIWGQGTMVTVSS VL: SYELTQPPSVSEAPRQRVTISCSGSSSNIGNNAVNWYQQLPGKAPKLLIYYDDLLPSGVSDRFSGSKSGTSASLAISGLQSEDEADYYCSAWDDSLNGWVFGGGTKLTVL | > 25 µg/mL | 4620 pM |  |  |
| ADI-41217 (antibody, V domains shown) VH: EVQLVQSGGGLVKPGGSLRLSCVASGFTFSSYSMNWVRQAPGKGLEWVSSISASSSYIDYADSVKGRFTISRDNDKKSLYLQMSSLRAEDTAVYYCAREDYDSLTGYYSPKRFDPWGQGTLVTVSS VL: QSVLTQPPSLSGAPGQRVTISCTGSSSNIGAGYDVHWYQQLPGTAPKLLIYGNNNRPSGVPDRFSGSKSGTSASLAITGLQAEDEADYYCQSYDRSLSVVFGGGTKVTVL | 0.04 µg/mL | 489 pM |  |  |
| ADI-41235 (antibody, V domains shown) VH: QVQLQQWGAGLLKPSETLSLTCGVYGESFSGHYWSWIRQPPGKGLEWMGEIHHSGTTNYNPSLKSRVTISVDTSKNQFSLKLNSVTAADTAVYYCARNPAEDILTGYSPPFHYYYMDVWGKGTTVTVSS VL: QSVLTQPPSVSGAPGQRVTISCTGSSSNIGAGYDVHWYQQIPGTAPKLLIHSNNNRPSGVPDRFSGSKSGTSASLAITGLQAEDEADYYCQSYDSSLSVVFGGGTKLTVL |  |  | 3240 pM | 4720 pM |
| ADI-41244 (antibody, V domains shown) VH: QVTLKESGGGLIQPGGSLRLSCAVSGFTVSSKYMSWVRQAPGKGLEWVSVIYGGGSTYYTDSVKGRFTISRDNSNNTLYLQMNSLRAEDTAIYYCAREARSYNYDYVGNDAFDIWGQGTTVTVSS VL: DIVLTQTPDSLAVSLGERATINCKSSQSVLNNFNNKNYLAWYQQKPGQPPKLLIYWASTRESGVPDRFSGSGSGTDFTLTITSLQAEDVAIYYCQQYYRTPPYTFGQGTKVDIK |  |  | 843 pM |  |
| ADI-41234 (antibody, V domains shown) VH: QVQLVQSGGGVVQPGRSLRLSCAASGFTVSSYAIHWVRQSAGKGLEWVAVEGRFTISRDNSKNTLYLQMNSLRAEDTAVYYCARLSEALVEPAAHTQYKYHYGLDVWGQGTTVTVSS VL: EIVLTQSPLSLPVTPGEPASISCKSSQSLLDSNGYNYLDWYLQKPGQSPQLLIYLVSNRASGVPDRFSGSGSGTDFTLKISRVEAEDVGIYYCMQALQTPWTFGQGTKVEIK | 0.1 µg/mL | 1460 pM |  |  |
| ADI-41188 (antibody, V domains shown) VH: QVQLQQWGAGLLKSSETLSLTCAVYGGSFSGYYWSWIRQSPGKGLEWIGEINHSGSANYNPSLKNRVTISRDTSKNQFSLWLSSVTAADTAVYYCARTSRSPEPDNYYYYMDVWGRGTTVTVSS VL: QSVLTQPPSVSGAPGQRVSISCTGSSSDIGAGYDVHWYQQFPGTAPKLLMYANNNRPSGVPDRFSGSRSGTSASLAITGLQAEDEADYYCQSYDSNLDVVVFGGGTKLTVL | 0.15 µg/mL | 224 pM |  |  |
| ADI-41193 (antibody, V domains shown) VH: EVQLVESGGGLVKPGMSLRLSCAASGFRFSDHYMNWIRQAPGKGLEWVSYISSSSTYTDYTDSVKGRFTISRDNSKNSVYLQMNSLRAEDTAIYYCARVAPIRHNGDYIDYWGQGTTVTVSS VL: NFMLTQPPSASGTPGQRVTISCTGSSSNIGAGYDVHZYQQIPGTAPKLLIYGNNNRPSGVPDRFSGSKSGTSASLAITGLQTEDEADYYCQSYDRGLSGRVFGTGTKVTVL | 0.07 µg/mL | 740 pM |  |  |
| ADI-41264 (antibody, V domains shown) VH: EVQLVESGGGLVKPGGSLRLSCAASGFTFSNTWMSWVRQAPGKGLEWVGHIKSKTDGGTTDYAAPVKGRFTISRDDSKSILNLHLNSLKTEDSAVYYCAALPPISGWYYTPGFWGQGTLVTVSS VL: SYELTQPPSMSVSPGQTARITCFGDAVPKKYVYWYQQKSGQAPVMVIYDDRRRPSGIPERFSGSSSGARATLTISGAQVEDEADYYCYSTDGSGNPSFGGGTKLTVL |  |  | 484 pM |  |
| ADI-41206 (antibody, V domains shown) VH: EVQLLESGGGLVKPGGSLRLSCAGSGFSFSSYSMNWVRQAPEKGLEWVSSISASSSFINYADSVKGRFIISRDNAKNSLFLQMDSLRAEDTAVYYCARDGVHPGGYIFGGYIDSWGQGTLVTVSS VL: QSVLTQPPSVSGAPGQRVTISCTGSSSNIGAGYDVHWFRQLPGTAPKLLIYGNNNRPSGVPDRFSGSKSGSSASLIITGLQAQDEATYYCQSYDSSLSGYVFGTGTKLTVL | 0.07 µg/mL | 409 pM |  |  |
| ADI-41198 (antibody, V domains shown) VH: EVQLVQSGGVVIQPGGSLRLSCAASGFSFDEYLMHWVRQLPGKGLEWVALISWHGDITYYADSVKGRFTISRDNSRYSLYLQMNSLRSDDTALYYCVKDGWIEGAFNHTFGIGYYFENWGQGTLVTVSS VL: DIVLTQTPSSLSASVGDRVTITCQASQDINNCLNWYQQKPGKAPEVLIFDASNLETGVPLRFSGSGSGTHFTLTISSLQPEDIATYYCQQHENVPLTFGGGTKVEIK | 0.32 µg/mL | 756 pM |  |  |
| ADI-41210 (antibody, V domains shown) VH: QVQLVQSGAEVKKPGASVKVSCKASGYTFNNYGISWVRQAPGQGLEWMGWISAYNGDIKYAQKFQGRVTVTTDTSTSTAYMELRSLRSDDTAVYYCARDTPVGGGTQTFDYWGQGTLVTVSS VL: ETTLTQSPLSLPVTLGQPASISCRSSQSLVHSNGNTYLNWFQQRPGQSPRRLIYTVSNRDSGVPDRFSGSGSGTDFTLKISRVEAEDVGVYYCMQATHRPGTFGQGTKVEIK | 0.1 µg/mL | 470 pM |  |  |
| ADI-41199 (antibody, V domains shown) VH: QVQLVESGGGLVKPGGSLRLSCGASGFTFPDYYMSWIRQAPGKGLEWLSYISSSSSFTDYADSVKGRFTISRDNAKKSLYLQMNSLRAEDTAVYYCARVRADYVGNSRIHFDYWGQGTLVTVSS VL: DIVMTQSPVTLSVSPGERATLSCRASQSLNGYLAWYQQKPGQAPRLLIYGASTRATEPGWDTSGRGSGTEFTLTISSLQSEDFAVYYCQQYNDWPFTFGQGTRLEIK | 0.23 µg/mL | 1730 pM |  |  |
| ADI-41204 (antibody, V domains shown) VH: EVQLLESGGGLVKPGGSLRLSCAASGFTFSSYSMNWVRQAPGKGLEWVSSISAGSSYIYYADSVKGRFTISRDNAKNSLYLQMNSLRAEDTAVYYCARVPSYETTPYFDYWGQGTLVTVSS VL: QSVLTQPPSVSGAPGQRVTISCTGSSSNIGSGYDLHWYQQLPGTAPKLLIYVNSNRPSGVPDRFSGSKSGTSASLAITGLQAEDEADYYCQSYDSSLSGYVFGTGTKVTVL | 0.06 µg/mL | 545 pM |  |  |
| ADI-41233 (antibody, V domains shown) VH: EVQLLESGGGLVKPGGSLRLSCAASGFIFRDYYMIWIRQAPGKGLEWVSYISSSSTYTNNADSVKGRFTISRDNAKNSLYLQMNSLRAEDTAVYYCARLFASRSDGAFDIWGQGTTVTVSS VL: QSVLTQPPSVSGAPGQRVTISCTGSSSNIGAGYDVHWYQQLPETAPKLLIYDNNNRPSGVPDRFSGSKSGTSASLAITGLQAEDEADYYCQSYDSSLSGYVFGTGTTVTVL | 0.15 µg/mL | 1060 pM |  |  |
| ADI-41226 (antibody, V domains shown) VH: EVQLVESGGGLVKPGGSLRLSCAASRFTFAGYYMSWIRQAPGKGLEWVSDISPSSTYTNYADSVKGRFTISRDNAGTSVSLQMDSLRADDTAVYYCARITPYGGSHYFDSWGQGTLVTVSS VL: QPVLTQPPSVSGAPGQRVTISCTGSSSNIGAGYDLHWYQQLPGTAPKLLIYGNSNRPSGVPDRFSGSKSGTSASLAITGLQAEDEADYYCQSYDNSLSGFYVFGTGTKVTVL | 0.15 µg/mL | 820 pM |  |  |
| ADI-41216 (antibody, V domains shown) VH: EVQLVESGGGLVKPGESLRLSCAASGFRFSDHYMSWIRQAPGKGLEWISYISSSSSYIHYADSVTGRFTISRDNAKNSMYLQMNSLRAEDTAVYYCAREIGRSYYMDVWGKGTTVTVSS VL: QSALIQPPSVSGAPGQRVTISCTGSSSNIGAGYDVHWYQQLPGTAPKLLIYGNNNRPSGVPDRFSASKSGISASLAITGVQTEDEADYYCQSYDRSLSEFYVFGSGTKVTVL | 0.19 µg/mL | 903 pM |  |  |
| ADI-41236 (antibody, V domains shown) VH: QVQLVQSGGGLVKPGGSLRLSCTASGFTFSDYYMDWIRQAPGKGLEWVSSISSSSTYTKYADSVKGRFTISRDNAKNSLFLQMNSLRAEDTAVYYCVRNLGPYCSSTSCFVFDYWGQGTLVTVSS VL: QSVLTQPPSVSGAPGQRVSISCTGSSSNIGAGYEVHWYKQVPGTAPRLLMYDNTNRPSGVPDRVSGSKSGTSASLAITGLQAEDEADYYCQSYDNSLNKSVFGGGTKVTVL |  |  | 61300 pM |  |
| ADI-41241 (antibody, V domains shown) VH: QVQLVQSGAEVKKPGASVQVSCKASGYTFTGDYMHWVRQAPGQGLEWMGRINPNSGGTNYAQKFQGRVTMTRDTSISTAYMELSRLRSDDTAVYYCARAAAEYSSSSPTSYYYMDVWGKGTTVTVSS VL: EIQMTQSPSSLSASVGDRVTITCRASQNIYSFLNWYQQKPGKAPKLLIYAASSLQSGVPSRFSGSGSATDFTLTISSLQPEDFATYYCQQSYSPPQITFGQGTKVDIK |  |  | 927 pM | 3840 pM |
| ADI-41289 (antibody, V domains shown) VH: EVQLVQSGAEVKKPGESLKISCKGSGYSFSSFWIGWVRQMPGKGLEWMGIIYPGDSDTRYSPSFQGQVTISADQSIRTAYLQWNSLKASDTGLYYCAKGGLGDVEMATIAVWGQGTLVTVSS VL: QSVLIQPASVSGSPGQSITIPCTGTSSDVGSYNLVSWYQHHPGKAPKLIISEGSKRPLGVSNRFSGSKSGNTASLTISGLQAEDEADYYCSSYVRSRTFNYVFGTGTKLTVL |  |  | 881 pM |  |
| ADI-41240 (antibody, V domains shown) VH: QVQLQQWGAGLLKPSETLSLICDVYGGSFSDYYWSWIRQSPGKGLEWIGEINHSGSTSFHPSLKSRISISIDTSNNQFSLNLSSMTAADTAVYYCARGTLRGYFDYWGQGTLVTVSS VL: EIVLTQSPSTLSAFVGDRVTITCRASQSISRWLAWYQQKPGKAPNLLISEASSLESGVPSRFSGSGSGTEFTLTISSLQPDDLGTYYCQQYNGYLWTFGQGTKVEIK |  |  | 1200 pM | 2150 pM |
